# According to patent US20220372154A1 (APEXIGEN, published 2022):
# T1: cynomolgus TNFR2-His tagged protein (cynomolgus, UniProt A0A2K5VET2 132-366)
# T1 construct: also called Cyno TNFR2; cynomolgus TNFR2 protein; not shown: His tag
# T1 sequence: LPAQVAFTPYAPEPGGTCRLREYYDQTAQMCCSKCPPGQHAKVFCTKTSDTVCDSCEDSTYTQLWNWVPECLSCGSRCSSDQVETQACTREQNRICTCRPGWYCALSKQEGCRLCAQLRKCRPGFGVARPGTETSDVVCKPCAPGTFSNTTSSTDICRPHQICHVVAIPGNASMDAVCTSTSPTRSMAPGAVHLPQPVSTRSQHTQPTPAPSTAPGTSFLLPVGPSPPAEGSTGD
# T2: human TNFR2 expressed on cells (human, UniProt P20333 23-461)
# T2 construct: whole, on cells; also called hTNFR2 (cell); CHO-TNFR2
# T2 sequence (looked up): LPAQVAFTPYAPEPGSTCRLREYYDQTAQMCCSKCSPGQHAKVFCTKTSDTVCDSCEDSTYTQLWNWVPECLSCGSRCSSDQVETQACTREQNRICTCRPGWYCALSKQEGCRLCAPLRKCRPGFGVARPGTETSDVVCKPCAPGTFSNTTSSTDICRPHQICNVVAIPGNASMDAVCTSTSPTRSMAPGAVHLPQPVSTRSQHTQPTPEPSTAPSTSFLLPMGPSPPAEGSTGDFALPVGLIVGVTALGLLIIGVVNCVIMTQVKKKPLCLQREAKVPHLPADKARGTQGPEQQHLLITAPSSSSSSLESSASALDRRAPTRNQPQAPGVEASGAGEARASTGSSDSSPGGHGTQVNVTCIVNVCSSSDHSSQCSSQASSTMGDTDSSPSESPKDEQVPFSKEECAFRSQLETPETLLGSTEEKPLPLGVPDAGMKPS
# T3: TNFR-Fc (UniProt P20333 23-257, limits assumed)
# T3 construct: Printed only as TNFR-Fc; not shown: Fc part
# T3 sequence (looked up): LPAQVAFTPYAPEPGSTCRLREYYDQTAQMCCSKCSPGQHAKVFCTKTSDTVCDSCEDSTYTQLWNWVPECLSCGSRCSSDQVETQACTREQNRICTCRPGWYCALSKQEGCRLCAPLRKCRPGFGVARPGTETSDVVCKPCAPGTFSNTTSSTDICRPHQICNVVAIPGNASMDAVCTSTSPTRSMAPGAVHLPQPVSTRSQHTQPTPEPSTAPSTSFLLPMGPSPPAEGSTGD
# T4: human TNFR2-His tagged protein (soluble) (human, UniProt P20333 23-257)
# T4 construct: also called hTNFR2 (soluble); soluble TNFR2-His; not shown: His tag
# T4 sequence (looked up): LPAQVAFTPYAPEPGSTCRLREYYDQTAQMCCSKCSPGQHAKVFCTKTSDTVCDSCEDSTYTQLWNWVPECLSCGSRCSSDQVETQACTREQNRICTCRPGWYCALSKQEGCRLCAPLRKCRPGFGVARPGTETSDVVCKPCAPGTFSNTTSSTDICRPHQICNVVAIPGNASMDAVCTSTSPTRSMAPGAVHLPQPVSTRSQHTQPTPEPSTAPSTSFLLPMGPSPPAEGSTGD
# T5: human TNFR1-His tagged protein (human, UniProt P19438 30-211, limits assumed)
# T5 construct: also called soluble human TNFR1; not shown: His tag
# T5 sequence (looked up): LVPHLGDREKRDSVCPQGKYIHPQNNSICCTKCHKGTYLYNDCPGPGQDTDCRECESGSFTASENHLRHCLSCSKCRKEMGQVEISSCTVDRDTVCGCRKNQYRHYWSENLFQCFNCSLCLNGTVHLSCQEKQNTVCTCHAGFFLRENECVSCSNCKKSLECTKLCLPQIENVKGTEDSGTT
# T6: TNFR2 PLAD or CRD1 peptide (aa 17-54 of mature TNFR2) (human)
# T6 construct: Range counted on mature TNFR2
# T6 peptide: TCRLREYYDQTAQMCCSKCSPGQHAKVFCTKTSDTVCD
# T7: soluble mouse TNFR2 (mouse, UniProt P25119 23-258, limits assumed)
# T7 sequence (looked up): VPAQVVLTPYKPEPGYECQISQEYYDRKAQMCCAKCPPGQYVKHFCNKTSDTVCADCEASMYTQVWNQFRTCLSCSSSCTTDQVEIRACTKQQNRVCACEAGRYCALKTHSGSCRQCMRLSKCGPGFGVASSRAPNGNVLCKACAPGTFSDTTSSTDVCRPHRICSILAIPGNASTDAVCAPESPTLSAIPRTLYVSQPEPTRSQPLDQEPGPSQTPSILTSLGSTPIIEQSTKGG
# Assays:
# [1] = target: T1, cynomolgus TNFR2-His tagged protein; experiment: ELISA, cynomolgus TNFR2
# [2] = target: T2, human TNFR2 expressed on cells; experiment: blocking of biotinylated TNF-α on TNFR2-CHO cells, flow cytometry
# Protocol: TNFR2-overexpressing CHO cells were plated at 100,000 cells per well. Cells were incubated with the indicated antibodies for 30 minutes on ice. […] Cells were analyzed using Cytoflex or MACSQuant flow cytometer. Assay was repeated twice.
# [3] = target: T3, TNFR-Fc; experiment: TNF-α blocking ELISA (soluble)
# [4] = target: T2, human TNFR2 expressed on cells; experiment: cell binding on TNFR2-overexpressing (OE) cells
# [5] = target: T4, human TNFR2-His tagged protein (soluble); experiment: ELISA, soluble human TNFR2
# [6] = target: T2, human TNFR2 expressed on cells; experiment: flow cytometry, cell-expressed human TNFR2
# [7] = target: T5, human TNFR1-His tagged protein; experiment: ELISA on coated TNFR1-His (1 ug/mL), OD 450 nm
# Protocol: TNFR1-His tagged protein was coated on ELISA plates at 1 μg/mL at 4° C. overnight. Plates were washed, blocked, and antibodies were added at indicated concentrations for 1 hour at RT. Antibodies were washed and detected with anti-human IgG HRP for 1 hour. Assay was developed using TMB substrate for 10 minutes.
# [8] = target: T1, cynomolgus TNFR2-His tagged protein; experiment: ELISA on coated cynomolgus TNFR2-His
# In short: (§1)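 TNFR2-His ELISAs: human or cynomolgus protein coated at 1 μg/mL overnight at 4 °C, BSA-blocked, antibodies 1 h RT, anti-human HRP, TMB 3–5 min. Flow: 200,000 human TNFR2-CHO cells, antibody 1 h, anti-human IgG BV421 20 min. Blocking ELISA: TNFR-Fc coated 1 ug/mL, antibodies 1 h RT, TMB 5–7 min.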
# [9] = target: T3, TNFR-Fc; experiment: TNF-α blocking ELISA on coated TNFR-Fc
# In short: as §1
# [10] = target: T4, human TNFR2-His tagged protein (soluble); experiment: ELISA on coated human TNFR2-His
# In short: as §1
# [11] = target: T6, TNFR2 PLAD or CRD1 peptide (aa 17-54 of …); experiment: peptide-binding ELISA (potential peptide bin)
# [12] = target: T2, human TNFR2 expressed on cells; experiment: flow cytometry on CHO cells expressing human TNFR2
# In short: as §1
# [13] = target: T7, soluble mouse TNFR2; experiment: binding screen on soluble mouse TNFR2 (mouse cross-reactivity)
EC50 [1] [nM],IC50 [2] [nM],IC50 [3] [nM],Kd [4] [nM],EC50 [5] [nM],EC50 [6] [nM],binding result [7],EC50 [8] [nM],IC50 [9] [nM],EC50 [10] [nM],binding result [11],EC50 [12] [nM],binding result [13],Binder
0.046,7.02,0.465,0.387,0.051,0.587,–,–,–,–,–,–,–,"humanized antibody h600_25_9 (antibody, V domains shown) VH: EVQLVESGGGLVQPGGSLRLSCAASGFSLSTYDINWVRQAPGKGLEWVGIIYTGGITNFANWAKGRFTISRDNSKNTLYLQMNSLRAEDTAVYYCARGGYDSEGYVYPDAFDPWGQGTLVTVSS VL: DIQMTQSPSSLSASVGDRVTITCQASESISNLLAWYQQKPGKAPKLLIYRASILTSGVPSRFSGSGSGTDFTLTISSLQPEDFATYYCQHGYTGTNVQNVFGGGTKVEIK"
0.054,0.323,2.96,0.201,0.091,0.239,binds,–,–,–,–,–,–,"humanized antibody h600_HB_11D7.1 (antibody, V domains shown) VH: EVQLVESGGGLVQPGGSLRLSCAASGFDFSRYYMSWVRQAPGKGLEWVGYIDPIFGNTYYASWVNGRFTISSDNAKNSLYLQMNSLRAEDTAVYYCARDGDAGYDGYGYGTDLWGQGTLVTVSS VL: DIQMTQSPSSLSASVGDRVTITCQASENIYSGLAWYQQKPGKVPKLLIVSAFTLASGVPSRFSGSGSGTDFTLTISSLQPEDVATYYCQTYYYGSVTYFNAFGGGTKVEIK"
0.058,0.567,2.29,0.291,0.098,0.408,–,–,–,–,–,–,–,"humanized antibody h600_24_124 (antibody, V domains shown) VH: EVQLVESGGGLVQPGGSLRLSCAASGIDFSSYGISWVRQAPGKGLEWVAYIYPDYGSTDYATWVNGRFTISLDNSKNTLYLQMNSLRAEDTAVYYCASGYASSSGYYDPKYFGLWGQGTLVTVSS VL: DIQMTQSPSSLSASVGDRVTITCRASEDIESYLAWYQQKPGKAPKLLIYDASDLASGVPSRFSGSGSGTDFTLTISSLQPEDFATYYCQHGFYTSRSDSVFGGGTKVEIK"
0.109,0.566,3.81,0.539,0.131,0.672,–,–,–,–,–,–,–,"humanized antibody h600_HB_55F6.6 (antibody, V domains shown, also called 55F6.1) VH: EVQLVESGGGLVQPGGSLRLSCAASGFSFTNNYYMCWVRQAPGKGLEWVGCIYPSIVGPTYYANWAKGRFTISRDNSKNTLYLQMNSLRAEDTAVYYCVRDRYDDYGDYFNLWGQGTLVTVSS VL: DIQMTQSPSSLSASVGDRVTITCQASQSIYNYLSWYQQKPGKAPKRLIYYASTLASGVPSRFSGSGSGTDFTLTISSLQPEDFATYYCQSNSGVNGNRYGNAFGGGTKVEIK"

# More lines, now with the values behind:
Binder,EC50 [1] [nM],IC50 [2] [nM],IC50 [3] [nM],Kd [4] [nM],EC50 [5] [nM],EC50 [6] [nM],binding result [7],EC50 [8] [nM],IC50 [9] [nM],EC50 [10] [nM],binding result [11],EC50 [12] [nM],binding result [13]
"humanized antibody clone 25-31 (h600_24_31) (antibody, V domains shown, its heavy-chain CDRs are those of rab600_25_31) VH: EVQLVESGGGLVQPGGSLRLSCAASGFSLSSYDMSWVRQAPGKGLEWVGYIWSSGSAYYATWAEGRFTISRDNSKNTLYLQMNSLRAEDTAVYYCARRYVGSSYDTWGQGTLVTVSS VL: DIQMTQSPSSLSASVGDRVTITCQSSQSVSSNNYLSWYQQKPGKAPKLLIYAASYLASGVPSRFSGSGSGTDFTLTISSLQPEDFATYYCLGDYDNDIDHAFGGGTKVEIK",1.86,–,–,12.1,0.72,12.1,binds,–,–,–,–,–,–
"chimeric antibody clone 6 (rab600_23_6) (antibody, V domains shown) VH: QEQLKESGGRLVTPGTPLTLTCTASGFSLSSYYVSWVRQAPGKGLEWIGIIHSDGSIYYATWAKGLFTISRTSTTVDLKATSLTTEDTATYFCVRGYPGYYTSTFNRLDLWGQGTLVTVSS VL: AYDMTQTPASVEVAVGGTVTIKCQASQTISNELSWYQQKSGQPPKLLIYRASTLASGVPSRFSGSGSGTEFTLTISGVECDDAATYYCQQGYTTNNVDNLFGGGTEVVVK",–,–,–,–,–,–,–,0.104,5.63,0.147,binds,0.277,no binding
"chimeric antibody clone 81 (rab600_23_81) (antibody, V domains shown) VH: QSLEESGGRLVTPGTPLTLTCTASGFSLSNYYVSWVRQAPGKGLEWIGIIETGGNLYYASWAKGRFSLSKTSTTVDLKITSPTAEDTATYFCVRGYPGYYTHTFNRLDLWGQGTLVTVSS VL: AYDMTQTPASVEVAVGGTVTIKCQASESIANELSWYQRKSGQPPKLLIYRASTLASGVPSRFKGSGSGTQFTLTISGVECDDAATYYCQQGYTTINIDNLFGGGTEVVVK",–,–,–,–,–,–,–,4.04,–,7.39,binds,9.44,no binding
"humanized antibody h600_24_2 (antibody, V domains shown) VH: EVQLVESGGGLVQPGGSLRLSCAASGFSFSVSYWICWVRQAPGKGLEWVACTDGGDGSSYYASWVNGRFTISRDNSKNTLYLQMNSLRAEDTAVYYCARDRSDVFNLWGQGTLVTVSS VL: DIQMTQSPSSLSASVGDRVTITCQAGQSIDSNLAWYQQKPGKAPKLLIYRASTLASGVPSRFSGSGSGTDFTLTISSLQPEDFATYYCQSFYVTISAMVDYPFGGGTKVEIK",0.131,0.447,3.52,0.245,0.149,0.377,–,–,–,–,–,–,–
